# Entries after “also recorded” stand apart in the source; their conditions may differ.
# Columns and labels:
# [1] = system: inflammatory mediators in the gingiva of aged mice; assay: qPCR of gingival mRNA in aged mice after local administration of soluble Del-1; assay type: in vivo, C57BL/6 mice; settings: 12 h
# Method: (§1) Ten 18-month-old C57BL/6 mice were microinjected in the gingiva with soluble recombinant mouse Del-1 (kindly provided by Valentis, Inc.)^4 and another ten mice with BSA control. Specifically, Del-1 or BSA (1 μg in 1-μl volume) were microinjected through a 28.5-gauge MicroFine needle (BD) into the palatal gingiva between the first and the second molar teeth, on both sides of the maxilla. Half of the Del-1 or BSAtreated mice were additionally orally inoculated with P. gingivalis ATCC 33277 (10^9 CFU) in 2% carboxymethylcellulose vehicle and the other half were orally given vehicle alone. All mice were sacrificed 12 h later. Maxillae were harvested and one side was stored in 4% paraformaldehyde for immunohistochemistry (see below), while the other side was used to dissect interdental gingiva which were placed into RNAlater solution (Ambion) for qPCR (see below). To determine whether IL-17 regulates Del-1 expression, a neutralizing anti-IL-17A mAb (clone M210, rat IgG2a; kindly provided by Amgen) was microinjected into the palatal gingiva (1 μg) as described above. Purified azide-free rat IgG2a (Biolegend) served as control. qPCR was used to determine […] in dissected gingiva.
# Total RNA was extracted from excised gingival tissue or cultured cells using the PerfectPure RNA cell kit (5 Prime, Fisher) and quantified by spectrometry at 260 and 280 nm. The RNA was reverse-transcribed using the High-Capacity cDNA Archive kit (Applied Biosystems) and qPCR with cDNA was performed using the ABI 7500 Fast System, according to the manufacturer's protocol (Applied Biosystems). TaqMan probes, sense primers, and antisense primers for qPCR of genes investigated in this paper were purchased from Applied Biosystems.
# mouse neutrophils = settings: cited from earlier work
# LFA-1 = target: T1, LFA-1 (Mus musculus, UniProt P24063); settings: at equimolar amounts; cited from earlier work
# T1 construct: host or cells: leukocytes (endogenous LFA-1)
# [2] = system: periodontal inflammation in old mice; assay: Immunohistochemistry of interdental gingiva of old mice microinjected with Del-1 or BSA; assay type: in vivo, C57BL/6 mice
# Method: FIG. 24. Del-1 inhibits IL-17 and periodontal inflammation in old mice. Eighteen-month-old C57BL/6 mice were microinjected in the gingiva with BSA (control) or Del-1, as indicated. In addition, the mice were orally administered P. gingivalis in 2% carboxymethylcellulose vehicle (a, b, c; lower rows) or vehicle control (a, b, c; upper rows) and were sacrificed 12 h later. Sagittal sections of interdental gingiva were stained for the neutrophil marker Ly6G (a), IL-17A (b), or TNF (c). Shown are typical fluorescent confocal images (left) and their overlays with corresponding DIC images (right). (d) The fluorescence intensities of these and additional representative images from independent mice were quantified using ImageJ analysis; data were expressed as % intensity of the Del-1-treated groups relative to the BSA-treated controls, the value of which was set to 100% (dashed line). ‘Induced inflammation’ refers to the groups inoculated with P. gingivalis. Data are means±SD (n=5 mice per group) from one of two independent experiments yielding similar results. **P<0.01 compared to BSA-treated controls.
# as §1
# Maxillae with intact surrounding tissue were fixed in 4% paraformaldehyde, decalcified in Immunocal solution (Decal) for 15 days, and embedded in OCT compound. Serial mesio-distal sections (7- to 8-μm thick) parallel to the long axis of the teeth (sagittal) were stained with monoclonal antibodies to mouse Ly6G (RB6-8C5, FITC-conjugate; LifeSpan BioSciences), mouse CD4 (GK1.5, FITC- or PE-conjugate; LifeSpan), mouse γδ T-cell receptor (GL3, FITC-conjugate; LifeSpan Biosciences) or with polyclonal antibodies to human/mouse Del-1 (ProteinTech), human/mouse IL-17A (Santa Cruz Biotech), human/mouse TNF (Abcam), human/mouse RANKL (Santa Cruz), and mouse CD31 (LifeSpan). Where necessary, staining involved the use of a secondary reagent (AlexaFluor594-conjugated goat anti-rabbit IgG; Molecular Probes). The specificity of staining was confirmed by using appropriate FITC-conjugated isotype controls or normal rabbit IgG followed by AlexaFluor594-goat anti-rabbit IgG. Images were captured using a laser-scanning confocal microscope (Olympus FV1000). Fluorescence intensity was quantified using the Image J software (NIH; http://rsb.info.nih.gov/ij).
# WT neutrophils = assay: Cytokine/chemokine release by isolated neutrophils stimulated with LPS plus C5a; assay type: cell-based, mouse; settings: soluble Del-1 10 μg/ml, LPS (100 ng/ml) plus C5a (10 nM), 4 h
# Method: FIG. 27. Effects of Del-1 deficiency or Del-1 on neutrophil function. (a) Migration of neutrophils isolated from wild-type (WT) or Edil3^−/− mice was tested in a transwell system. Chemokinesis (in the absence of a chemokine in the bottom well) or chemotaxis to CXCL2 (10 ng/ml) in the bottom well was assessed after 60 min. The migration of WT neutrophils in the absence of chemokine was set as the 100% control (dashed line) and the data were expressed relative to this value. (b) Neutrophils isolated from WT or Edil3^−/− mice were stimulated or not for 4 h with LPS (100 ng/ml) plus C5a (10 nM) and release of the indicated cytokines or chemokines in the culture supernatants was determined by ELISA. (c) WT neutrophils, in the presence or absence of soluble Del-1 (10 μg/ml), were stimulated as above and assayed for release of the indicated cytokines or chemokines. Data are means±SD (n=3 sets of neutrophils), from one of two independent sets of experiments yielding similar results.
# Mouse neutrophils were obtained by harvesting the bone marrow (Ley (2007)). Briefly, bone marrow cells, obtained after flushing tibias and femurs with RPMI 1640 containing 10% FBS, were depleted of tissue debris and erythrocytes and were resuspended in 45% Percoll. […] Neutrophil purity was routinely >95%, as determined by FACS after staining for Ly6G, F4/80, and CD3.
# [3] = 18-month-old mice, local gingival microinjection 1 μg, compared to BSA control
# T1 sequence (P24063 24-1162): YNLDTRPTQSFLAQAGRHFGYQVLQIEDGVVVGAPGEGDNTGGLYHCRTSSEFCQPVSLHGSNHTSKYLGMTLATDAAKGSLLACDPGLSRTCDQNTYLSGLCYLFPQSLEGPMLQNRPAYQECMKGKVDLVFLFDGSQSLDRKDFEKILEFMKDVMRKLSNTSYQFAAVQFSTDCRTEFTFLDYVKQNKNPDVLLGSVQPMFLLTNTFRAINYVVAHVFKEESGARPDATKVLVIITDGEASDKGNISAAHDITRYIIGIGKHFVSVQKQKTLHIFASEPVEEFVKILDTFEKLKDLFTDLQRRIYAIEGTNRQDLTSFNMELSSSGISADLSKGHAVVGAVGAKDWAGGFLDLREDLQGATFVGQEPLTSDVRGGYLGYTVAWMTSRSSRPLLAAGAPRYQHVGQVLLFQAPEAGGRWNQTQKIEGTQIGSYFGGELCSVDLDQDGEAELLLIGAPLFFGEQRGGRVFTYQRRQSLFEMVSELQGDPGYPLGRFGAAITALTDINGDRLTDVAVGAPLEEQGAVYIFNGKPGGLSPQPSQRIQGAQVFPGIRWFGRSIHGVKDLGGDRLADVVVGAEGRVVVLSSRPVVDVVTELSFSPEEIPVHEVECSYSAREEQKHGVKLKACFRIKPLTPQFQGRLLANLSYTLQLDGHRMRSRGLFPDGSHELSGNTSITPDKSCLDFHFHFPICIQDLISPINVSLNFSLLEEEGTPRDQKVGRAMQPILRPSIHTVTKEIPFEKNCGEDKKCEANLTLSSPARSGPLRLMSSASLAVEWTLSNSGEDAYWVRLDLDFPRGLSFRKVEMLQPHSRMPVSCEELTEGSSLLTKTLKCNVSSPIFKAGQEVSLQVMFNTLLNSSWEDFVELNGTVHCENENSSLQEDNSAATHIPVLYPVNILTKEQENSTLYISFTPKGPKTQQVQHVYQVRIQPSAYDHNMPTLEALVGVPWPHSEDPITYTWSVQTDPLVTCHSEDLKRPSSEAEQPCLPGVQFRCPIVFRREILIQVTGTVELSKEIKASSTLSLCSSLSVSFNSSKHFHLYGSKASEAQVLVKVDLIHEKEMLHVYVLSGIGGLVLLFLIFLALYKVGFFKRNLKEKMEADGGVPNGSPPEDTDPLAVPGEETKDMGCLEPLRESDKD
# T1 sequence (P11835 24-771 partner): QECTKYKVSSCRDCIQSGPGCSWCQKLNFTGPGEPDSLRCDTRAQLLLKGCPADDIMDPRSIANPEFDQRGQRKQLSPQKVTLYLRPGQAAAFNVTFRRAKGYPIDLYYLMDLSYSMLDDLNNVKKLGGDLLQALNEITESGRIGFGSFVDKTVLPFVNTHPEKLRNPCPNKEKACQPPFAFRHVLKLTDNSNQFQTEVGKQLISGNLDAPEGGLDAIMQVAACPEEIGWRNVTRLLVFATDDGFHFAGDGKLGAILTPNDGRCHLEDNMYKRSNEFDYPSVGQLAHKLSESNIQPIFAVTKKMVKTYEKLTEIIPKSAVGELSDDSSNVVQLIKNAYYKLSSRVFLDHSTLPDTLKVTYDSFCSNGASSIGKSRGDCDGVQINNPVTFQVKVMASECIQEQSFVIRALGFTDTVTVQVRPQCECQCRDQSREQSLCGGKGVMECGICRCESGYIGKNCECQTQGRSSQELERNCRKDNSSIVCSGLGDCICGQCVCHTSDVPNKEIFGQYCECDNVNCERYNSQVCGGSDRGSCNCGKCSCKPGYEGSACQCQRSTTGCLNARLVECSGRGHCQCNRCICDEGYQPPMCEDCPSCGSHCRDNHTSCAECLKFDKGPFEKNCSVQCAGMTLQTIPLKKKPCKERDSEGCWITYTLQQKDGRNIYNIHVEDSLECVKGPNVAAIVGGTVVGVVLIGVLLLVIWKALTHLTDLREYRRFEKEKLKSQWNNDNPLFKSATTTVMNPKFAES
molecule,measurement,setting,value
"Del-1: soluble recombinant mouse Del-1 (provided by Valentis, Inc.); endothelial cell-expressed 52-kDa glycoprotein (protein) DICDPNPCENGGICLPGLADGSFSCECPDGFTDPNCSSVVEVASDEEEPTSAGPCTPNPCHNGGTCEISEAYRGDTFIGYVCKCPRGFNGIHCQHNINECEVEPCKNGGICTDLVANYSCECPGEFMGRNCQYKCSGPLGIEGGIISNQQITASSTHRALFGLQKWYPYYARLNKKGLINAWTAAENDRWPWIQINLQRKMRVTGVITQGAKRIGSPEYIKSYKIAYSNDGKTWAMYKVKGTNEDMVFRGNIDNNTPYANSFTPPIKAQYVRLYPQVCRRHCTLRMELLGCELSGCSEPLGMKSGHIQDYQITASSIFRTLNMDMFTWEPRKARLDKQGKVNAWTSGHNDQSQWLQVDLLVPTKVTGIITQGAKDFGHVQFVGSYKLAYSNDGEHWTVYQDEKQRKDKVFQGNFDNDTHRKNVIDPPIYARHIRILPWSWYGRITLRSELLGCTEEE","C3aR mRNA, Fold change vs. Del-1-untreated controls",[1]; CMC only,0.49 Fold change
same,"C5aR mRNA, Fold change vs. Del-1-untreated controls",[1]; CMC only,0.50 Fold change
same,"CCL2 mRNA, Fold change vs. Del-1-untreated controls",[1]; CMC only,0.48 Fold change
same,"CCL3 mRNA, Fold change vs. Del-1-untreated controls",[1]; CMC only,1.02 Fold change
same,"CCL20 mRNA, Fold change vs. Del-1-untreated controls",[1]; CMC only,0.24 Fold change
same,"CCR2 mRNA, Fold change vs. Del-1-untreated controls",[1]; CMC only,0.26 Fold change
same,"CCR6 mRNA, Fold change vs. Del-1-untreated controls",[1]; CMC only,0.25 Fold change
same,"CD40 mRNA, Fold change vs. Del-1-untreated controls",[1]; CMC only,0.24 Fold change
same,"CD80 mRNA, Fold change vs. Del-1-untreated controls",[1]; CMC only,0.25 Fold change
same,"CD86 mRNA, Fold change vs. Del-1-untreated controls",[1]; CMC only,0.50 Fold change
same,"CXCL10 mRNA, Fold change vs. Del-1-untreated controls",[1]; CMC only,0.25 Fold change
same,"CXCR4 mRNA, Fold change vs. Del-1-untreated controls",[1]; CMC only,0.50 Fold change
same,"G-CSF mRNA, Fold change vs. Del-1-untreated controls",[1]; CMC only,0.12 Fold change
same,"IL-1 mRNA, Fold change vs. Del-1-untreated controls",[1]; CMC only,0.50 Fold change
same,"IL-6 mRNA, Fold change vs. Del-1-untreated controls",[1]; CMC only,0.25 Fold change
same,"IL-17 mRNA, Fold change vs. Del-1-untreated controls",[1]; CMC only,0.19 Fold change
same,"RANKL mRNA, Fold change vs. Del-1-untreated controls",[1]; CMC only,0.49 Fold change
same,"TLR1 mRNA, Fold change vs. Del-1-untreated controls",[1]; CMC only,0.24 Fold change
same,"TLR2 mRNA, Fold change vs. Del-1-untreated controls",[1]; CMC only,0.26 Fold change
same,"TLR4 mRNA, Fold change vs. Del-1-untreated controls",[1]; CMC only,0.25 Fold change
same,"TLR5 mRNA, Fold change vs. Del-1-untreated controls",[1]; CMC only,0.51 Fold change
same,"TLR6 mRNA, Fold change vs. Del-1-untreated controls",[1]; CMC only,0.27 Fold change
same,"TLR9 mRNA, Fold change vs. Del-1-untreated controls",[1]; CMC only,0.25 Fold change
same,"TNF mRNA, Fold change vs. Del-1-untreated controls",[1]; CMC only,0.50 Fold change
same,"TREM-1 mRNA, Fold change vs. Del-1-untreated controls",[1]; CMC only,0.49 Fold change
same,"C3aR mRNA, Fold change vs. Del-1-untreated controls",[1]; Pg (P. gingivalis inoculated),0.49 Fold change
same,"C5aR mRNA, Fold change vs. Del-1-untreated controls",[1]; Pg (P. gingivalis inoculated),0.25 Fold change
same,"CCL2 mRNA, Fold change vs. Del-1-untreated controls",[1]; Pg (P. gingivalis inoculated),0.49 Fold change
same,"CCL3 mRNA, Fold change vs. Del-1-untreated controls",[1]; Pg (P. gingivalis inoculated),0.51 Fold change
same,"CCL20 mRNA, Fold change vs. Del-1-untreated controls",[1]; Pg (P. gingivalis inoculated),0.49 Fold change
same,"CCR2 mRNA, Fold change vs. Del-1-untreated controls",[1]; Pg (P. gingivalis inoculated),0.12 Fold change
same,"CCR6 mRNA, Fold change vs. Del-1-untreated controls",[1]; Pg (P. gingivalis inoculated),0.13 Fold change
same,"CD40 mRNA, Fold change vs. Del-1-untreated controls",[1]; Pg (P. gingivalis inoculated),0.25 Fold change
same,"CD80 mRNA, Fold change vs. Del-1-untreated controls",[1]; Pg (P. gingivalis inoculated),0.25 Fold change
same,"CD86 mRNA, Fold change vs. Del-1-untreated controls",[1]; Pg (P. gingivalis inoculated),0.49 Fold change
same,"CXCL10 mRNA, Fold change vs. Del-1-untreated controls",[1]; Pg (P. gingivalis inoculated),0.26 Fold change
same,"CXCR4 mRNA, Fold change vs. Del-1-untreated controls",[1]; Pg (P. gingivalis inoculated),0.24 Fold change
same,"G-CSF mRNA, Fold change vs. Del-1-untreated controls",[1]; Pg (P. gingivalis inoculated),0.25 Fold change
same,"IL-1 mRNA, Fold change vs. Del-1-untreated controls",[1]; Pg (P. gingivalis inoculated),0.25 Fold change
same,"IL-6 mRNA, Fold change vs. Del-1-untreated controls",[1]; Pg (P. gingivalis inoculated),0.24 Fold change
same,"IL-17 mRNA, Fold change vs. Del-1-untreated controls",[1]; Pg (P. gingivalis inoculated),0.25 Fold change
same,"RANKL mRNA, Fold change vs. Del-1-untreated controls",[1]; Pg (P. gingivalis inoculated),0.25 Fold change
same,"TLR1 mRNA, Fold change vs. Del-1-untreated controls",[1]; Pg (P. gingivalis inoculated),0.24 Fold change
same,"TLR2 mRNA, Fold change vs. Del-1-untreated controls",[1]; Pg (P. gingivalis inoculated),0.25 Fold change
same,"TLR4 mRNA, Fold change vs. Del-1-untreated controls",[1]; Pg (P. gingivalis inoculated),0.12 Fold change
same,"TLR5 mRNA, Fold change vs. Del-1-untreated controls",[1]; Pg (P. gingivalis inoculated),0.51 Fold change
same,"TLR6 mRNA, Fold change vs. Del-1-untreated controls",[1]; Pg (P. gingivalis inoculated),0.26 Fold change
same,"TLR9 mRNA, Fold change vs. Del-1-untreated controls",[1]; Pg (P. gingivalis inoculated),0.51 Fold change
same,"TNF mRNA, Fold change vs. Del-1-untreated controls",[1]; Pg (P. gingivalis inoculated),0.51 Fold change
same,"TREM-1 mRNA, Fold change vs. Del-1-untreated controls",[1]; Pg (P. gingivalis inoculated),0.24 Fold change
same,LFA-1-dependent adhesion of mouse neutrophils to mouse endothelial cells,mouse neutrophils,competitively inhibits
same,competition with ICAM-1 for binding to LFA-1 on leukocytes,LFA-1,outcompetes ICAM-1
same,expression of IL-17 in the periodontium,[2]; [3],diminished
same,expression of TNF in the periodontium,[2]; [3],diminished
same,neutrophil infiltration in the periodontium (Ly6G staining),[2]; [3],reduced
same,inflammation induced by oral inoculation with Porphyromonas gingivalis,"[2]; old mice, P. gingivalis inoculated",suppressed
same,constitutive (naturally occurring) inflammation,"[2]; old mice, vehicle only",suppressed
same,"cytokine and chemokine induction (TNF, CXCL1 release) by neutrophils",WT neutrophils,did not exert a direct effect; also recorded: No significant differences

# Source: patent US20140302027A1, “METHODS OF TREATING PERIODONTAL INFLAMMATION AND PERIODONTAL BONE LOSS” (United States of America as Represented by the Secretary, …, priority 2011, published 2014)
